These results are taken from publication PMC9816786 (2022).

The assay concerns the target T1, PCSK9 (Homo sapiens (Human), UniProt Q8NBP7).
T1 chain: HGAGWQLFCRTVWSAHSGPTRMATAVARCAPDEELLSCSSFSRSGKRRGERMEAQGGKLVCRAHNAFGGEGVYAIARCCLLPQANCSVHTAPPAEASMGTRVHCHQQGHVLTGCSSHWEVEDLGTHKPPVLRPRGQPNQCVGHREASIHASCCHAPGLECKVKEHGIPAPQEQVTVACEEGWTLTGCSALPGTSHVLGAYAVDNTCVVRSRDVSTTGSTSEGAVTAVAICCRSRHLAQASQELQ
Description: BLI; pH 7.5. (BLI is a label-free optical method that tracks binding on a fibre tip over time.)

B1: CAP1 (protein)
chain: ADMQNLVERLERAVGRLEAVSHTSDMHRGYADSPSKAGAAPYVQAFDSLLAGPVAEYLKISKEIGGDVQKHAEMVHTGLKLERALLVTASQCQQPAENKLSDLLAPISEQIKEVITFREKNRGSKLFNHLSAVSESIQALGWVAMAPKPGPYVKEMNDAAMFYTNRVLKEYKDVDKKHVDWVKAYLSIWTELQAYIKEFHTTGLAWSKTGPVAKELSGLPSGPSAGSCPPPPPPCPPPPPVSTISCSYESASRSSLFAQINQGESITHALKHVSDDMKTHKNPALKAQSGPVRSGPKPFSAPKPQTSPSPKRATKKEPAVLELEGKKWRVENQENVSNLVIEDTELKQVAYIYKCVNTTLQIKGKINSITVDNCKKLGLVFDDVVGIVEIINSKDVKVQVMGKVPTISINKTDGCHAYLSKNSLDCEIVSAKSSEMNVLIPTEGGDFNEFPVPEQFKTLWNGQKLVTTVTEIAG
Regarding B1, binding was characterised by a dissociation constant (Kd) of 1360 nM. This counts as single-digit micromolar.

In general, Kd refers to the constant that tells how readily two partners part at equilibrium. A higher Kd goes with a looser complex.
